The text below walks through data of patent publication US20130316910A1 (UNIVERSITY OF TOKYO, published 2013).

The labels stand for the following.
B1: A-1A (peptide)
peptide: Ac-FPHATIAARADSYDSYVRLAATFL-NH2
notes: by the library design Ala stands where the special amino acid and Cys would be

T1 sequence (P10415 1-211 limits assumed): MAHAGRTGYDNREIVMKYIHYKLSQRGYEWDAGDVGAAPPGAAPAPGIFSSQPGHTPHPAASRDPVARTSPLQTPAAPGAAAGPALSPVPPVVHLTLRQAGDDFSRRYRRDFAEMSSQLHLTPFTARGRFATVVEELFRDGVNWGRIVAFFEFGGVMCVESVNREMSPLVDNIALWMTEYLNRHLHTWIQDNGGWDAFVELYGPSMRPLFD

The experiment addresses T1, Bcl-2 protein having His tag on the C terminal side (UniProt P10415 1-211, limits assumed).
T1 construct: Immobilised through its His tag on a Ni-loaded SPR substrate; not shown: C-terminal His tag
In words: SPR, His-tagged Bcl-2 immobilised on Ni substrate, peptide in solution. How it is done: Next, a crosslinked peptide having the amino acid sequence as shown in the above table was synthesized by using a Fmoc solid-phase method and its binding ability was evaluated by calculating a dissociation constant (KD) in accordance with an evaluation method using SPR (Surface Plasmon Resonance).
Described specifically, first, a solution containing NiCl₂ was applied on a substrate to which Ni could be bound and then Bcl-2 protein having His tag on the C terminal side thereof was applied to immobilize the protein on the substrate. Then, a solution containing a solid-phase synthesized peptide was added successively while appropriately changing the concentration. During addition, a change in refractive index depending on the weight on the substrate was read and bond strength was evaluated based on the binding rate and dissociation rate of the peptide calculated.
Usually Kd stands for the equilibrium constant for the complex coming apart. Lower therefore signals higher affinity. As for Ac-FFNRHNNAYYTAGYAALGRLYRLL-NH2 [A-4A], the Kd was ~14 nM.

Molecule Ac-FIIARFSALADSYDASRHIF-NH2 [A-5A] returned a Kd of 0.58 nM.

The molecule B1 gave a Kd of 15 nM.

In turn, Ac-FPHATIAARADSYDSYVRLVATFR-NH2 [A-2A] registered a Kd of 3.6 nM.
